Experimental data from paper PMC4114980.

Target: purified bovine brain tubulin (bovine) (UniProt Q6B856)
Assay: co-sedimentation; constant Chro-CTD (10 µg) with 0.125–2.5 µM taxol-stabilized microtubules from bovine brain tubulin; bound fraction in pellets by densitometry of immunoblots; Kd from a Lineweaver-Burk plot; three independent experiments

Kd: 230 nM
B1: Chro-CTD (329–926), COOH-terminal domain of Chromator, GST-fusion protein (domain or fragment)
chain: AMDAFKQWVNETVAGDGSSSPSSANEDESSTEQEWPPSSGAIKRKLNNTDSSLEGSGLNDSMDLEDLEEDLPSHTVKRLKNGGSSVQLNKPRIQSTEKQQTKINGNSTVVSPLTEQKMGEIIYTEDSTSSGMFRKPEMPNTINLKKEKPECPVRYLSRSEVGSSTRGVFRVENSEAPAPVSPAPVPQKVIAAPPAAGIAKRLPMARPAHSGANSPITVGQRQHALRTPGHGPVTAALHRRPGVGGASHVRQNLQQAPGRAHPGGRVLARAGVGTPQHRQQVQTPQGAKAVTPEQKILQLSKSGDLKVTRKVVTREELLAQRSAQARQRQALSQQQSSQQQKATPARQRIVSKSTIQPTPLQMELEEEIHQHQAQLCPITGKLIGQEETQLQMEQEQQQEQQREQLEAAAQALLGSDQQVLTNEDGSALLVRGEDGTVYQVAGKNAEGQTILVTQGPDGEQQFAYVAAAEGEDQDVLSLDHAVAEAVQAGEQVESHGVGAATADGEQILVSMTEEELAQHQVLQQAEASAAGTGTPPTAQIHITTSDSDGTESQIPAEVVQADLPSPGGTRRVVLLLQDGTFMMTEMHEDQFKTLNIPT
